# According to the DeepSol protein solubility set:
# Assay: soluble on expression in E. coli; label from the status in PepcDB or PDB records
row,Sequence,soluble on expression in E. coli
1,MSLALELRQQLKLSQQLVMTPQLQQAIRLLQLSRLELVETVQQELLENPFLEEGMDEGAASSASEASSRKDESAPEAYDRELSRNADWEDYLGEFASSSRQAQVRETELPEEMTAFEARYSARPSLEGHLMWQLRLSRLTEDQKGIGETIIGNIGSSGYLQASVEDIAEMCGADASEVIPVLHAVQRFDPVGVASRTPQECLLIQIEMLGYDRDRVLVELVRDHLEDLETRRYKPLLRKFKLDMDDLKEYLDIIQSLDPMPGSSFGGSDPMFVSPDVFVYKYDDEFVIVLNDDGLPHLQLSSLYDQSLAGVTGKDKDFVQEKVRSASWLIKSLYQRQRTLYKVVESIIKYQRGFFEDGVTRLRPLILKDIADDISMHESTVSRITTNKFVATPHGVFELKFFFNSALELDDGSQVGSESVKALIKKLIGEENPKEPLSDERIGEILKEQLQVNIARRTVAKYRTAMNIPSSSKRKEVFEGHHHHHH,soluble
2,MLAGHLFAGVGEDVRLFKGITMTYGHNIELGDNAVVHDGVHLDDRGELVVGARASVSNGAHLYTHDHDVVDQTDVTNYRTEIGADARVTQGALVRAGVRVGENALVGSRSVVQGDVPAHHIAVGSPAESVRVKPGWLEHHHHHH,not soluble
3,MSKQDEVIVVGKFGASYGIRGWLKVVSFTDQPESIFDYKPWLIQVKGEWVEFSVESWKRHKGLVCKLKGLDVREEAQTYTNLEIAVKADALPELSEDEFYWRELFGMEVVTTKGYALGVVDDIFETGSNDVLVVKANLKDAFGKKERLIPFIDEQVIKLIDREAQRIEVDWDPGFLEHHHHHH,soluble
4,HQITRTVPAKRGTIYDRNGVPIAEDATSYNVYAVIDKKYKSATGKILYVEDAQFNKVAEVFHKYLDMEESYVREQLSQPNLKQVSFGSKGNGITYANMMAIKKELETAEVKGIDFTTSPNRSYPNGQFASSFIGLAQLHENEDGSKSLLGTSGMESSLNSILAGTDGIITYEKDRVGNIVPGTELVSQQTVDGKDVYTTLSSPLQSFMETQMDAFLEKVKGKYMTATLVSAKTGEILATTQRPTFNADTKEGITEDFVWRDILYQSNYEPGSAMKVMTLASSIDNNTFPSGEYFNSSELKIADATTRDWDVNEGLTTGGMMTFLQGFAHSSNVGMSLLEQKMGDATWLDYLKRFKFGVPTRFGLTDEYAGQLPADNIVSIAQSSFGQGISVTQTQMLRAFTAIANDGVMLEPKFISAIYDTNNQSVRKSQKEIVGNPVSKEAASTTRNHMILVGTDPLYGTMYNHYTGKPIITVPGQNVAVKSGTAQIADEKNGGYLVGSTNYIFSAVTMNPAENPDFILYVTVQQPEHYSGIQLGEFATPILERASAMKESLNLQSPAKNLDKVTTESSYAMPSIKDISPGELAEALRRNIVQPIVVGTGTKIKETSVEEGTNLAPNQQVLLLSDKVEEIPDMYGWKKETAETFAKWLDIELEFEGSGSVVQKQDVRTNTAIKNIKKIKLTLGD,soluble
5,APAAVDWRARGAVTAVKDQGQCGSCWAFSAIGNVECQWFLAGHPLTNLSEQMLVSCDKTDSGCSGGLMNNAFEWIVQENNGAVYTEDSYPYASGEGISPPCTTSGHTVGATITGHVELPQDEAQIAAWLAVNGPVAVAVDASSWMTYTGGVMTSCVSEALDHGVLLVGYNDSAAVPYWIIKNSWTTQWGEEGYIRIAKGSNQCLVKEEASSAVVG,soluble
6,MIRSSIDLMLKTGAAALAKNFENRDPIAGQREILARLVVAAAVTRFGRDHGFAELAGEPFDRLYAEFRRRVPIRTYADFWRDYFSAWQSDANGSQRLLLEDVTWPGRIPFFCETSGTTAPTKYIPFSREMFAANKRAAIDLTACYLHRTPRSRLFQGKLLYMAGNTSLTDLGNGVQSGDMSGITLRHRPFYLRPFVAPGMAVSALPWEEKVVELAGLLLSDRSIRGISGVPPWIILLLQRVEEMGHRPIAELLPNLELIIHGGTSMKPYRREFDGLFPRRRPHFLEVLPSSEAFMAFQLPGEDRMRLVPHYGAFFEFIPIEDLDEGGTPAADAPTVPLEAVETGRRYAVILTTCAGLWRYHIGDTLRFTALSPHFIEFTGRDRFLDRFEEKVTQGEVEEAVARLNQLDGIEVREFMVGPDIGERRHLWVLAVGEMNERSGDVLGRHLDATLRSLNADYATFRSQGRIAGPRVVTVSGDVIYRWSKEVRGKLGGQSKIPHVDPTVEGEMVASLAAFARRFQACWIADSFQGFGPTGRVKVQNSSNFTGSRSLPERTRPSSSVVLEHHHHHH,not soluble
7,MMRGASKRSISSAAVLLIKKNKLPPRPKFTPEMEAQCTEKFLHGGRGPGGQKINKCNSKVQLRHEPTGIVVECQETRSREQNRKLARLKLARELAASYDTMPSREEALLQWHRQQKRSQRRRSVAKYEQREEAARVEKEEREARDREMVRELFRR,soluble
8,MAHHHHHHMNDETKVFNKCFKKISNCYTLNKKGEKENSTGNQFVLHNCIQTLLSDPIVVLYTDNNYICTGSLTGKVCLYKITIKENKETNTNISYVYNNNNNITDDEKKCINDLNNREELKKENYSKSTIDDVVISKKELNNHNNINNNNNNNNNNNNNSEIIKKYHILCMFRNNSIKSIYIDKNNIYICYESCIDVFCVRSYQFIQKINLDVTNNKQVIYYENYILFNNSKSLFIYDITSNFSSYFYKNFLKNIVIFDFNINYLLCYKNNFGKCHIRVLQIFADAQKCEHELIFCVDFSSKFISHGKFLDDEKIIVAKNGKRLIIFDFKKAIDMYRIRKLKKKILDIHKSVENMLFILVENQIFIFNLSTFVFYKTVQLPKGLFYFKWSYFIRYKNRKIIFSSDKGVYYIDYSIEENV,soluble
9,GFRKMAFPSGKVEGCMVQVTCGTTTLNGLWLDDTVYCPRHVICTAEDMLNPNYEDLLIRKSNHSFLVQAGNVQLRVIGHSMQNCLLRLKVDTSNPKTPKYKFVRIQPGQTFSVLACYNGSPSGVYQCAMRPNHTIKGSFLNGSCGSVGFNIDYDCVSFCYMHHMELPTGVHAGTDLEGKFYGPFVDRQTAQAAGTDTTITLNVLAWLYAAVINGDRWFLNRFTTTLNDFNLVAMKYNYEPLTQDHVDILGPLSAQTGIAVLDMCAALKELLQNGMNGRTILGSTILEDEFTPFDVVRQCSGVTHHHHHH,soluble
10,MGSDKIHHHHHHMKITKVECIPVSMPLKKPLRLPNVTITKLDTLLLRLHTETGLVGIAESGDTSSWYRGESQASMVSMICDIFAPRILLGEDPCNIEKIVGAMDTLARDNNQAKGLVDCALHDLKGKVLNVPVYQLLGGRTRESAPLGWVLSAGEPDKVAEAALSAREAGFVAFKLKVGRGTFDNDVATAAAVRKALGDSARICLDANGSWNYEQALRTIRRLDAYRLDFVEQPLPHWDIEGMARLRQRIDTPVYADEAAQELHHLKEIAERRAADGVILKVQKVGGLLKAQRFLAVAQMFDLPVMCSTLIGSGVEACPTAHLWVANQWACQFISESTGPLAVHGVWNSEDIPQGADLALQGARFHRGHVSPGDGPGLGVELNEALLGQIRTEGRPARVVNL,not soluble
11,GPGSMSRSKEPPLPEELRTRLGQMDGCATAESWESVGNECFSHGCHLSAIRCYTKALEKGSDTANLRSSRSAAYMKSSMFAGPSLALKDAERAAELEPGRCEAHLRVGDAQLARKKYAEAKAAYQKAIELDGSCTAATHALRIVERELFLRSLDEQKKFSPVTEKPSGENTGTTSTGSNAEGPLNMEEEIKKRIQLWAEDTTVREDRTAMRAFNARLDEADRQAGTKYKSELLLKFRGKMAAQEPFRRMVEERRDQEMRMGEGIDYRNADSYRAILTKGTDGVGLGISTDAYKSYKYESKMW,not soluble
12,MGAVGRGRRMSERHLRRSTHKVGDITLGAVHRLNCHCGAVQIDLDLPHGLVDPRRCDCSMCRRRGAIVASVPLQGLHVRQGEDVLRLYQFNTHAAAHYFCGVCGIYTHHRRRSNPNEYGYNVGCLEGVNPYALNITVPVEDGIHHPADRVAPQLEHHHHHH,not soluble
13,MSLSFSMKIKNIPYYVATRVVKRIQSWLGLNTLGARAIVTNAEGHVLLVKHTYQPHWYLPGGGVKKGESTKAAVIRELHEEVGLVVAEQDVILFGIYHHKYLGVNDYPVIYIVKNFTSHVTHSGEIEQIGWFSLDALPEMVSPGTKRRLGEYFDNNPISEGHHHHHH,not soluble
14,ITEDEIRTLMEQGADEGVFDRAEQELVENIFRLDNRKASAVMTPRKDVVILDLEDGPERNRELLLGHPFSHFPVCRGDTDQVIGMLNAKTLLDRLLRGEALDFAAELSPPLYVPSTCSLMQLLEQFKQARSHSALVVDEYGELEGLVSINNVMEAIVGDLPAIDGEEDEIV,not soluble
15,MSVITPTSSIAANDHRAQFLGLLDTSLSQNSLIKLVLAKYVGSEADLQRIIIKPLTVKEQPCLSFVYRYKTRDITKNFPLAEAVAVIASLIPESFKNAHLLSLSDEVQLEYSKKGKTTLFKSKAQQEREAPSAGHDREKKRYLELSRPFLADLGVTNRQHELIPAMSRKWKQINKFIEVFSHALSSSSLKLDQPIKVADFGSGKGYLTFAIHDYLCNTLQAQGQVTGVELREDMVTLCNNAAAGLEHPGLTFQHGDVRSVAPRALDVMIALHACDIATDYAIHMGIRSGASIIMCSPCCHKQIRLQIQSPSLLKPMLQYGLHMGQQAEMVTDSLRALLLDACGYETKVFEFISLEHTNKNKMILAVKRAEPANPAQLLVRIQELKAFYGISEQCLETLLQADGFLG,not soluble
16,MAKVTGTKVITNQVRLSFVHVLEPHAMEEGQEKKYSCMLIIPKDDKETLKAMKEAIKTAYEGAKGDKLKGVKFERLKTTLRDGDEEMDTEERPEFENAMFINVSSKTKPQVVKREDGVLVKTDDPDEVYSGVYAIASINFYAYSTAGNKGVTAGLNNILTLCKGDFLGGRANAESDFGDLEWEDEEDDMFS,not soluble
17,SLHELSLCQSAVEIIQRQAEQHDVKRVTAVWLEIGALSCVEESAVRFSFEIVCHGTVAQGCDLHIVYKPAQAWCWDCSQVVEVHQHDAQCPLCHGERLRVDTGDSLIVKSIEVE,soluble
18,MGSDKIHHHHHHMAFTHTVGQHRHVFADLRTLLAKASPARSGDYLAGIAAASEEERMAARMALAAVPLTQFLSEALVPYEDDEVTRLIVDSHDAVAFAEIASLTVGDFRNWLLLHETDSTTLATVARGITPEMAAAVSKLMRNQDLIAVARKCHVVTRFRSTVGLPGRLSVRLQPNHPTDDPKGIAASIIDGLMYGCGDATIGVNPVSDSLGAIVSLLRMIDDLRCRYDIPTQSCVLTHVTHTLRAMEQGAPVDLVFQSVAGSERANAAFGISLSLLAEAHDAAQALARGTVGDNVMYFETGQGSALSANAHHGVDQQTMEARAYAVARRFSPLLVNTVVGFIGPEYLYDGKQIIRAGLEDHFCGKLLGVPMGCDVCYTNHAEADQDDMDTLLTLFGVAGINFIMGVPGADDIMLNYQSTSFHDALYLREVLGLRPAPEFEAWLQRMGIADGSGRLLEPAERQPLLELAHTL,not soluble
19,MPDEATKGSATIPPSSSTPFWWREKRSPKVQYHRSAYPRSRSSDADCRQGNEGMNFIAKHFFEYQSFMNIPHKAVHLHKVPASQAGTDPSMGWAPKNMLKAGKHQPAPGARANRVHRDPRPNGTKYGRAGKHEHREWGDRHGELRDEKVACHKDAWTKFLANDDQGARTAFECDFEDRVLATEEETLQEKLCRTSPEAMNLNALYAAANKAVSCGGDVCELLTILTYAPTVQFVTTTVKKAKALPYNNAPFARIMLFEGRRLMEQKQTTVNPSLVHKSSVDGSKPSSSSASTSSNDNPSDVSFSESFLFHVPPTKLDRSHIVIELYDHDDEGGLQKIGHCVIGRLVDGTGNAHWIQMVRQHGLPVCMWHKIGHN,not soluble
